Data: patent US20060026702A1, “Phosphoinositide 3-kinase mediated inhibition of GPCRs” (DUKE UNIVERSITY, priority 2002, published 2006)

Key:
βARK1 = βARK1 recruitment to the membrane (immunoblot of membrane fraction); format: cell-based; details: 10 μM isoproterenol; HEAT 4 μg
Experimental: Cytosolic and Membrane Fractionation—Cell monolayers were scraped in 1 ml of buffer containing 25 mM Tris-HCl (pH 7.5), 5 mM EDTA, 5 mM EGTA, 1 mM phenylmethylsulfonyl fluoride, 2 μg/ml each of leupeptin and aprotinin and disrupted further by using Dounce homogenizer. Intact cells and nuclei were removed by-centrifugation at 1,000×g for 5 min. The collected supernatant was further subject to a centrifugation at 38,000×g for 25 min. The pellet was resuspended in lysis buffer (1% Nonidet P-40, 10% glycerol, 137 mM NaCl, 20 mM Tris-Cl (ph 7.4), 1 mM phenylmethylsulfonyl fluoride, 20 mM NaF, 1 mM sodium pyrophosphate, 1 mM sodium orthovanadate and 2 μg/ml each of aprotinin and leupeptin) and used as membrane fraction and the supernatant was diluted in lysis buffer and used as the cytosolic fraction. Heart samples also underwent through similar procedures to obtain membrane and cytosolic fractions. Purity of the membrane fraction preparation was confirmed by measuring enzyme activity of the membrane marker enzyme K^+-stimulated p-nitrophenylphosphatase (membrane fraction: 9.4 μmol/mg protein per min, cytosol: 2.6 μmol/mg of protein/min). […]
Cytosolic and membrane fractions were prepared and analyzed for βARK1 associated PI3K activity. […]

β2AR-YFP = target: T1, β2AR-YFP (Homo sapiens, UniProt P07550); test: Endocytosis of β2AR-YFP in live cells by confocal microscopy; format: cell-based; details: 10 μM isoproterenol, 10 min; HEAT co-expressed
T1 construct: expressed in transfected cells; host or cells: HEK 293
Experimental: Confocal Microscopy—Confocal microscopy was performed as previously described. […] Cells were split into 35 mm^2 dishes with glass bottoms for observation using a Zeiss LSM-510 confocal microscope. […] For analyses of the HEAT domain, HEK 293 cells were transfected with the plasmids containing cDNAs encoding either the β2AR-YFP (2 μg) or β2AR-YFP (2 μg) and HEAT domain (4 μg). Cells were plated onto glass bottom dishes for observation in the confocal microscope. […] Cells were permeablized with 0.1% Triton X-100 in phosphate-buffered saline for 20 min, incubated in 1% BSA in phosphate-buffered saline for 1 hr. Cells were washed with 1× phosphate-buffered saline and incubated with anti-HA or anti-FLAG monoclonal antibody (1:250) with 1% BSA in 1× phosphate-buffered saline for 1 hr. Cells were washed and incubated with goat anti-mouse IgG conjugated with Texas Red (1:500) (Molecular Probes) for 1 hr. Samples were visualized using single sequential line excitation filters at 488 and 568 nm and emission filter sets at 505-550 nm for GFP detection and 585 for Texas Red detection.
Prior to agonist, the distribution of β2AR-YFP was found distinctly at the plasma membrane (FIG. 11B, panel 1). […] With time, this was followed by the formation of cytoplasmic aggregates (FIG. 11B, panel 3), and then with the complete loss of membrane fluorescence (FIG. 11B, panels 3 and 7) (arrowheads).

B1: HEAT: 197 amino acid HEAT domain of PI3Kγ, FLAG epitope-tagged (SEQ ID NO: 2), overexpressed in cells (protein, listed as Homo sapiens)
chain: MDYKDDDDKHPIALPKHQPTPDDRVRAEMPNQLRKQLEAIIATDTAEDKELLWHFRYESLKHPKAYPKLFSSVKWGQQEIVAKTYQLLARREVWDQSALDVGLTMQLLDCNFSDENVRAIAVQKLESLEDDDVLHYLLQLVQAVKFEPYHDSALARFLLKRGLRNKRIGHFLFWFLRSEIAQSRHYQQRFAVILEAYLRGCGTA
modifications: FLAG tag
βARK1
  membrane recruitment of βARK1 following isoproterenol: no effect
β2AR-YFP
  receptor endocytosis (redistribution of β2AR-YFP): completely inhibited
